Target: T1, Par-3 PDZ1-APM (residues 309-987) (UniProt O96782 309-987)
T1 sequence (looked up): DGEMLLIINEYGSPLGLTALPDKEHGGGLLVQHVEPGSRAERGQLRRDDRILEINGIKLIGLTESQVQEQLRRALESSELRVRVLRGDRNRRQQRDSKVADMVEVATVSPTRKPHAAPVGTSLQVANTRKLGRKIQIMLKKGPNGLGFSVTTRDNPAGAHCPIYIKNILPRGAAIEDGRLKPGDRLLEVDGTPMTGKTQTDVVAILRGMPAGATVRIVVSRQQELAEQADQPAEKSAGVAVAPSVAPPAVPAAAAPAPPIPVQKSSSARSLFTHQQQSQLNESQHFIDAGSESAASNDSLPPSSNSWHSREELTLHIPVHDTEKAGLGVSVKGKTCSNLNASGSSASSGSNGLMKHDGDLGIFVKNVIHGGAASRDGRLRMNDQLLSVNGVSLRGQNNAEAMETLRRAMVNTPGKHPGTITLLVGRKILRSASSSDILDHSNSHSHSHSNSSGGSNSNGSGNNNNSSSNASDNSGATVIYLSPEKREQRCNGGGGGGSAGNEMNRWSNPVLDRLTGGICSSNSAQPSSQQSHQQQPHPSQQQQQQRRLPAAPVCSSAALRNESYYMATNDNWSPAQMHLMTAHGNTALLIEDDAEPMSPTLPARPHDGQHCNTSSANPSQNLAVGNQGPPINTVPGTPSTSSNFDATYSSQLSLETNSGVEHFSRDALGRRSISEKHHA
Assay: supernatant depletion assay

binding result: binds
B1: his aPKC kinase domain-PBM (residues 259-606) (domain or fragment, UniProt A1Z9X0 259-606, looked up)
chain: YSLNDFELIRVIGRGSYAKVLMVELRRTRRIYAMKVIKKALVTDDEDIDWVQTEKHVFETASNHPFLVGLHSCFQTPSRLFFVIEFVRGGDLMYHMQRQRRLPEEHARFYAAEISLALNFLHEKGIIYRDLKLDNVLLDHEGHIKLTDYGMCKEGIRPGDTTSTFCGTPNYIAPEILRGEDYGFSVDWWALGVLLYEMLAGRSPFDLAGASENPDQNTEDYLFQVILEKTIRIPRSLSVRAASVLKGFLNKNPADRLGCHRESAFMDIVSHPFFKNMDWELLERKQVTPPFKPRLDSDRDLANFPPEFTGEAVQLTPDDDHVIDNIDQSEFEGFEYVNPLLMSLEDCV
